We go through one variant from IntAct's records for PubMed 11102519.

The chains are these.
B1: Transmembrane 4 L6 family member 1 (Homo sapiens), P30408 (parent)
chain: MCYGKCARCIGHSLVGLALLCIAANILLYFPNGETKYASENHLSRFVWFFSGIVGGGLLMLLPAFVFIGLEQDDCCGCCGHENCGKRCAMLSSVLAALIGIAGSGYCVIVAALGLAEGPLCLDSLGQWNYTFASTEGQYLLDTSTWSECTEPKHIVEWNVSLFSILLALGGIEFILCLIQVINGVLGGICGFCCSHQQQYDC
partner: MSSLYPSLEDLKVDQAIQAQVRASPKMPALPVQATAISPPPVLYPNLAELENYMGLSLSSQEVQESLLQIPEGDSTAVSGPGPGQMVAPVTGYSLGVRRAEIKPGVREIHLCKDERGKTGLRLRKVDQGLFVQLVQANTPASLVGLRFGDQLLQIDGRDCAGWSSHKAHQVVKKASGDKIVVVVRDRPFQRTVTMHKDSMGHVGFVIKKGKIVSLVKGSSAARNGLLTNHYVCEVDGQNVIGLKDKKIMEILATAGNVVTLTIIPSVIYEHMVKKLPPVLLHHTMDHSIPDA

Variants of B1 are the subject of this test. Conditions: with sdcb2_human SDCBP2, Q9H190.
As for C202G, the “effect of a mutation on the interaction” value is given as “disrupting interaction strength”.
